Reference: paper PMC12221994

Tests used:
[1] = molecular target: KU70/80;DNA-PKcs;TRF2 (human;human;human, UniProt P12956;P13010;P78527;Q15554 1-609;1-732;1-4128;1-542, ||); experiment: KU pull-down; TRF2 association with KU mediated by template DNA; Footprinting: 25 mM HEPES pH 7.6, 80 mM KCl, 1.5 mM CaCl2, 1.5 mM MgCl2, 5% glycerol, 50 ug/ml BSA, 2 mM DTT, ice then 37 C (EMSA same buffer, 37 C); pull-down: 20 mM HEPES pH 7.6, 80 mM KCl, 5% glycerol, 0.01% NP-40, 1 mM DTT, 30 C; cryo-EM: 40 mM HEPES pH 7.6, 100 mM NaCl, 3 mM MgCl2, 4 C; conditions: protein: recombinant;native;recombinant; tags: FLAG (KU70 N-terminal);;dual strep; copies: 1;1;1;2; blunt
[2] = molecular target: KU70/80;DNA-PKcs (human;human, UniProt P12956;P13010;P78527 1-609;1-732;1-4128, |); experiment: KU pull-down; DNA-PKcs associates with KU in a DNA-dependent manner; Footprinting: 25 mM HEPES pH 7.6, 80 mM KCl, 1.5 mM CaCl2, 1.5 mM MgCl2, 5% glycerol, 50 ug/ml BSA, 2 mM DTT, ice then 37 C (EMSA same buffer, 37 C); pull-down: 20 mM HEPES pH 7.6, 80 mM KCl, 5% glycerol, 0.01% NP-40, 1 mM DTT, 30 C; cryo-EM: 40 mM HEPES pH 7.6, 100 mM NaCl, 3 mM MgCl2, 4 C; conditions: protein: recombinant;native; tags: FLAG (KU70 N-terminal);; copies: 1;1;1; blunt

B1: PE3/PE4 telomeric duplex (dsDNA)
DNA 1: CGTCTATATTCTATTGTCTCTTAGGGTTAGGGTTAGGGTTAGGGTTAGGGTTAGGGTTAGGGTTAGGGTTAACATCAGTCTCACATAGATTAGCTCACGC
DNA 2: GCGTGAGCTAATCTATGTGAGACTGATGTTAACCCTAACCCTAACCCTAACCCTAACCCTAACCCTAACCCTAACCCTAAGAGACAATAGAATATAGACG
B1: binds [1]; binds [2].
